Results: patent US20230204576A1

How the values were obtained:
[1] = target: HLA A*03:01, labelled with Alexafluor 647 (human); experiment: microfluidic diffusional sizing, 25 nM HLA, non-linear binding fit
[2] = target: HLA A*03:01, labelled with Alexafluor 647 (human); experiment: microfluidic diffusional sizing, global fit at 25 nM and 500 pM HLA

Substance: antibody W6/32
- Kd [1]: 961 pM
- binding site concentration B1 [1]: 13 nM
- Kd [2]: 466 pM
